The results in this text go back to US20230357838.

Series [1] relates to T1, FlDa01 (Flavobacterium sp.).
T1 sequence: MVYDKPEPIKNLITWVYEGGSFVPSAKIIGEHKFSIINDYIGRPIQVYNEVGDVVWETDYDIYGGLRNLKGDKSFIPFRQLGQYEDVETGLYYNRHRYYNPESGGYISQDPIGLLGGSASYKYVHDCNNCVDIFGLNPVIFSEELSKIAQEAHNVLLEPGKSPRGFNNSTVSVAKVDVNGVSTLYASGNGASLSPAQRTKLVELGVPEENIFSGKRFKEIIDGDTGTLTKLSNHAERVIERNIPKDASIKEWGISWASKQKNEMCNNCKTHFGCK

For another series, the system named is T2, MGYPDa06 (unidentified).
T2 sequence: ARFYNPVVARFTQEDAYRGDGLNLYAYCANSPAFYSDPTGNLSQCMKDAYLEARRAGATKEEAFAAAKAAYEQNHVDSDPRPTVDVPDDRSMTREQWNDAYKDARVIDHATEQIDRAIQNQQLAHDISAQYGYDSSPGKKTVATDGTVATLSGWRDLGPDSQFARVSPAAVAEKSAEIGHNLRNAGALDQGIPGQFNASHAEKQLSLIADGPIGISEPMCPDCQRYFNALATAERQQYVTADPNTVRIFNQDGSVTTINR

The next series has as its system T3, chimera_10.
T3 sequence: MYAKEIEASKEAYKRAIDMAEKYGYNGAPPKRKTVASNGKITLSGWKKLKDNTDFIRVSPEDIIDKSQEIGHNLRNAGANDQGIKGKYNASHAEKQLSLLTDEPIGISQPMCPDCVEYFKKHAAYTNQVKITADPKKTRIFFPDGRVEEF

Series [2] concerns AshDa01 (Amycolatopsis sp.). Particulars: CG 0.699, CH 0.193.
The next series relates to T4, MGYPDa20 (unidentified).
T4 sequence: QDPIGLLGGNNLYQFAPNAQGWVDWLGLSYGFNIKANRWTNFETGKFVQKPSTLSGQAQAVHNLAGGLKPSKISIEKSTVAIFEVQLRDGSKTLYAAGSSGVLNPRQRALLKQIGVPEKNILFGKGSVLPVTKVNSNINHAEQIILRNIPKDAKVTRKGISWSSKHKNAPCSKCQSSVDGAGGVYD
Particulars: 5mC 0.049, 5hmC 0.021.

In series [3] the test system is T5, BaDa01 (Bacillus aerophilus).
T5 sequence: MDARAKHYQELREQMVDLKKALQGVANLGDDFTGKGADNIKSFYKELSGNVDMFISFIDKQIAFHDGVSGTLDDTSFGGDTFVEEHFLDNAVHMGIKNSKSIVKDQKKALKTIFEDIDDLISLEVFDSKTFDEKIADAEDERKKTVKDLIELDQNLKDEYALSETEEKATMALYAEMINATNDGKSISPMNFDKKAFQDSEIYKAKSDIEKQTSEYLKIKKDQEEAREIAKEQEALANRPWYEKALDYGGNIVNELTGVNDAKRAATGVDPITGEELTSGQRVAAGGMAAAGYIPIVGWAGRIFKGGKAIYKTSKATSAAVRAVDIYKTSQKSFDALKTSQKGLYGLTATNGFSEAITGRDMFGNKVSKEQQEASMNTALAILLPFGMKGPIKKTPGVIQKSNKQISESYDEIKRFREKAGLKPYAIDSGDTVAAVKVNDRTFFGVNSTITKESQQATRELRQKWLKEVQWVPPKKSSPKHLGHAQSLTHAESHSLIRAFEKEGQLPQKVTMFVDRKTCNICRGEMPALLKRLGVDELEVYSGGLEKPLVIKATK

Series [4] concerns T6, BcDa02 (Burkholderia cepacia).
T6 sequence: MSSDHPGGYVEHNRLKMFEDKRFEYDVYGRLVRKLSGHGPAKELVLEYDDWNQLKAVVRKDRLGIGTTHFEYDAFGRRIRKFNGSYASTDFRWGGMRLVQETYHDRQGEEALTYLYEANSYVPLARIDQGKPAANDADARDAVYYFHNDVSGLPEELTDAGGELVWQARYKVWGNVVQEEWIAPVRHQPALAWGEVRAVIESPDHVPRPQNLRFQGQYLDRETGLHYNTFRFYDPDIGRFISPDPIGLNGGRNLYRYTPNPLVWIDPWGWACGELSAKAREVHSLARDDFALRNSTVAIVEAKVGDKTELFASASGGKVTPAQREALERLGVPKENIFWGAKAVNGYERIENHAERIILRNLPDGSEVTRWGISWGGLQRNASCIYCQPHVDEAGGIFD

For series [5], the system named is T7, RaDa01 (Ruminococcus sp.).
T7 sequence: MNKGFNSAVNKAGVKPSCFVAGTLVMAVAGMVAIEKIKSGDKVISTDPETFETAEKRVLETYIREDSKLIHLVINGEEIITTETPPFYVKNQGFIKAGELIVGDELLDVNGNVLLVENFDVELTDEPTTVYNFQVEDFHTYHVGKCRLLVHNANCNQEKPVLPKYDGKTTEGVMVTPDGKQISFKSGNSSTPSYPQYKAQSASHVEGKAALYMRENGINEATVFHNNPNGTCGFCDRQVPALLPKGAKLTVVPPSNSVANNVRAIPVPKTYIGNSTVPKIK

Series [6] relates to CseDa01 (Candidatus Scybalomonas e).
Series [7] relates to T8, d38_MGYPDa829 (unidentified).
T8 sequence: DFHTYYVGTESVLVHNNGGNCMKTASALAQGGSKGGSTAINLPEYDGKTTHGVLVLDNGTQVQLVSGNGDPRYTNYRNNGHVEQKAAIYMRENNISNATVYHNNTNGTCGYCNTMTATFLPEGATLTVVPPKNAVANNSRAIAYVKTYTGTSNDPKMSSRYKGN

The next series has as its system T9, MGYPDa23 (unidentified).
T9 sequence: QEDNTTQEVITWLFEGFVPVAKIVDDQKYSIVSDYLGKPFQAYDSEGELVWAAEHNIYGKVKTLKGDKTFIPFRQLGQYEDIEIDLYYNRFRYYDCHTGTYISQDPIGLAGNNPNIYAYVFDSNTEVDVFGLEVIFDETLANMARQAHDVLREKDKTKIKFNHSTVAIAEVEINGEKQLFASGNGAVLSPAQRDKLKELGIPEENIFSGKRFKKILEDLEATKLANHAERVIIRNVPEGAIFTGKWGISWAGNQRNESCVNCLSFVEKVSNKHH

A further series has as its system MmgDa02. Particulars: CG 0.446, CH 0.002.
The next series deals with CbDa01 (unidentified). Particulars: CG 0.760, CH 0.022.

Turning to “unmodified dsDNA (E. coli C2566 genomic)”, the activity (fraction deaminated) worked out at 0.928 in series [1]; 0.997 in the series with MGYPDa06 (unidentified); 0.95 with chimera_10; 0.342 in [2]; 0.857 in the series with MGYPDa20 (unidentified); 0.612 in series [3]. Moreover, the activity (fraction deaminated) in the series with d22_Cd4_PeDa01 came out at 0.641; in series [4], 0.772; in series [5] it was 0.465; in series [6], 0.998; in series [7], 0.993; in the series with MGYPDa23 (unidentified), 0.935. The activity (fraction deaminated) turned out to be 0.133 in the series with MmgDa02 and 0.24 with CbDa01 (unidentified).
